The values below are quoted from earlier work in paper PMC7764831.

The data set has as its target p53 (Homo sapiens) (UniProt P04637).

Azurin, sequence (P00282 21-148): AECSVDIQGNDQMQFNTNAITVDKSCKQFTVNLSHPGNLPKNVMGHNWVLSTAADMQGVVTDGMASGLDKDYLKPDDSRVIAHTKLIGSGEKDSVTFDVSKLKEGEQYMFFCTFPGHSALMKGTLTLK
p53 (Homo sapiens), sequence (P04637 whole entry): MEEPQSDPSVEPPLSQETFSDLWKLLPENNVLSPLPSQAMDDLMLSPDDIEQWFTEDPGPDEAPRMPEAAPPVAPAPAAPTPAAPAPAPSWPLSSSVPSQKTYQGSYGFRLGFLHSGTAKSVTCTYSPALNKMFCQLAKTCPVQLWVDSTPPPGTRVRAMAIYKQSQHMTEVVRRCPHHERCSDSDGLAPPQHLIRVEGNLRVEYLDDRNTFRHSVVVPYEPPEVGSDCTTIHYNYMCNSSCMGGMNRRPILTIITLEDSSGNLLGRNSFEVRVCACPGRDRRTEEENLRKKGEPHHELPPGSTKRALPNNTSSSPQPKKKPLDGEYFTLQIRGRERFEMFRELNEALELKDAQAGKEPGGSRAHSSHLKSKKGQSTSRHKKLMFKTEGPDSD

By Kd is commonly meant a measure of binding affinity in units of concentration. Consider Azurin (from UniProt P00282), for which the Kd is 6 µM.
